Measured values reported in patent US6764680.

What was measured:
[1] = target: rabbit antiserum against CTP37, rabbit # 4164; test: competition immunoassay, peptide competitor against rabbit antiserum 4164; legend: ++ = ED 50 < 250 ng
[2] = target: rabbit antiserum against COMBINED LOOP + CTP37, rabbit # 4165; test: competition immunoassay, peptide competitor against rabbit antiserum 4165; legend: ++ = ED 50 < 250 ng
[3] = target: rabbit antiserum against COMBINED LOOP + CTP37, rabbit # 4166; test: competition immunoassay, peptide competitor against rabbit antiserum 4166; legend: ++ = ED 50 < 250 ng
[4] = target: rabbit antiserum against COMBINED LOOP + CTP37, rabbit # 4173; test: competition immunoassay, peptide competitor against rabbit antiserum 4173; legend: ++ = ED 50 < 250 ng

Measured: ED50

CDDPRFQDSSSSKAPPPSLPS [hCG-CTP21 (residues 130-150 of the beta subunit of hCG)]
10 to 250 ng: all assays above
